T1: human C3a receptor (C3aR) (human, UniProt Q16581 1-482)
T1 construct: whole, on cells
T1 sequence (looked up): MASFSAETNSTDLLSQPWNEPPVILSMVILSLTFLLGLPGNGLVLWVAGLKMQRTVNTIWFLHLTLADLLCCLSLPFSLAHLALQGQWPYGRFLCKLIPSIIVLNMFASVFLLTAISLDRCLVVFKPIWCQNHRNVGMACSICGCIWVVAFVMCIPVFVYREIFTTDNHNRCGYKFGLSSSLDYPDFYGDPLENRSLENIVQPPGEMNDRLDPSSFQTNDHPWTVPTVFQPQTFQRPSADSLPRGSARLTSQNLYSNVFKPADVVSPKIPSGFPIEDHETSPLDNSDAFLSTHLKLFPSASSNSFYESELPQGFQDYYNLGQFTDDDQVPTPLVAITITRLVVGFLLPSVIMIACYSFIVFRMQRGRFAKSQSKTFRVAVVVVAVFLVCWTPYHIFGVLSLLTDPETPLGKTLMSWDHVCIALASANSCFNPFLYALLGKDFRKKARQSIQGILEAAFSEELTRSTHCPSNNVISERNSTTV

T2: human CD88 (C5a receptor) (human, UniProt P21730 1-350)
T2 construct: whole, on cells
T2 sequence (looked up): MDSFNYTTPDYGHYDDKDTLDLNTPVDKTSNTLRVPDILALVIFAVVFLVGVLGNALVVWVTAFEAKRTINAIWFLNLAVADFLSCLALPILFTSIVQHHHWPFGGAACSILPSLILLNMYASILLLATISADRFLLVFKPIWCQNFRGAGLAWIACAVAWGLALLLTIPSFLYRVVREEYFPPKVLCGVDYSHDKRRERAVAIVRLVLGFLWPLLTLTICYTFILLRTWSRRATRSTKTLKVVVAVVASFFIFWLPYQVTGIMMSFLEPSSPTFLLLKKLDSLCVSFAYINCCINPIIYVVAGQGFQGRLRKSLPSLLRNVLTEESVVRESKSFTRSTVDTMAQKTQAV

B1: recombinant C4a des-Arg^77 (ligand, UniProt P0C0L4 680-755, looked up)
chain: NVNFQKAINEKLGQYASPTAKRCCQDGVTRLPMMRSCEQRAARVQQPDCREPFLSCCQFAESLRKKSRDKGQAGLQ
notes: domain: C4a des-Arg^77; Expressed and purified under non-denaturing conditions; also called C4adR^77
B2: recombinant C3a des-Arg^77 (ligand)
chain: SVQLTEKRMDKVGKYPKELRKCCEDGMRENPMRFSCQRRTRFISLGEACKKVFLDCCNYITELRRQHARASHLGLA
notes: Recombinant form, expressed and purified under non-denaturing conditions; also called C3adR^77
B3: recombinant C4a (ligand, UniProt P0C0L4 680-756, looked up)
chain: NVNFQKAINEKLGQYASPTAKRCCQDGVTRLPMMRSCEQRAARVQQPDCREPFLSCCQFAESLRKKSRDKGQAGLQR
notes: domain: C4a; Expressed and purified under non-denaturing conditions
B4: recombinant His6-tagged C5a des-Arg^74 (ligand, UniProt P01031 678-750, looked up)
chain: TLQKKIEEIAAKYKHSVVKKCCYDGACVNNDETCEQRAARISLGPRCIKAFTECCVVASQLRANISHKDMQLG
notes: domain: C5a des-Arg^74; also called C5adR^74; not shown: His6 tag
B5: recombinant His6-tagged C5a (ligand, UniProt P01031 678-751, looked up)
chain: TLQKKIEEIAAKYKHSVVKKCCYDGACVNNDETCEQRAARISLGPRCIKAFTECCVVASQLRANISHKDMQLGR
notes: domain: C5a; Expressed and purified under denaturing conditions; not shown: His6 tag
B6: recombinant His6-tagged C3a (ligand)
chain: not shown
notes: domain: C3a; Expressed and purified under denaturing conditions; not shown: His6 tag
B7: plasma ASP (C3a des-Arg^77), purified from human plasma (ligand)
chain: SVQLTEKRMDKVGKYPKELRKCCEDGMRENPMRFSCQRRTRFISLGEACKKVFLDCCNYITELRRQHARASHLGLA
modifications: FLUOS (fluorescein) label in the flow cytometry assays, ^125I label in one assay; labelled residues not stated
notes: Unlabelled in the functional assays; also called acylation stimulating protein; FLUOS-ASP
B8: plasma C3a, purified human C3a (ligand)
chain: not shown
modifications: FLUOS (fluorescein) label; labelled residues not stated
notes: domain: C3a; also called FLUOS-C3a

T3 sequence (Q9P296 whole entry): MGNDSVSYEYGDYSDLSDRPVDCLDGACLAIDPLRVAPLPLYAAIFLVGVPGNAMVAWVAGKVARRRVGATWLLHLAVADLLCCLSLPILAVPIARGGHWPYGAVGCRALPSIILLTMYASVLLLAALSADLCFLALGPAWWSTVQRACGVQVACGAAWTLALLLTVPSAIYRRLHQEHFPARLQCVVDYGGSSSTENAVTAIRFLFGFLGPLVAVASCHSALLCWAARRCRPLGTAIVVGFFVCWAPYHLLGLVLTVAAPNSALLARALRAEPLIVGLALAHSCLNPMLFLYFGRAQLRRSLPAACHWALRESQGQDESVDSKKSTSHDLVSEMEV

The first assay addresses T3, human C5L2 (human, UniProt Q9P296 1-337). The assay is described as follows: cell-based or functional assay.
For B1, the “activity in the degranulation-enhancement assay against C3a des-Arg^77, C5L2-transfected RBL cells” value worked out at 230 fold.

A further assay has as its target T1, human C3a receptor (C3aR). Kind of assay: radioligand competition on C3aR-transfected RBL cells. (In general: Displacement assays read how much labelled ligand stays bound in the presence of the test substance.)
For the molecule B2, the binding result is given as “no binding (tested: pD2 <4)”.

In the next assay the target is T3, human C5L2. The assay is described as follows: radioligand competition on transfected RBL cells (Table I).
With B1, the “fold higher affinity for C5L2 than for C3aR” value came out at 1000 fold.

For the next assay, the target named is T3, human C5L2. The assay is described as follows: competition with 50 pM 125I-C3a on C5L2-transfected RBL cells, 4 C. As to the method: (§1) Competition binding assays were performed using 50 pM ¹²⁵I-C5a or ¹²⁵I-C3a (NEN) on adherent C5aR-transfected or C5L2-transfected RBL cells in 96-well microtiter plates (55 000/well) at 4° C. as described previously (22). Competition curves were generated by pre-incubating adherent cells with increasing concentrations of unlabelled complement fragments. The IC₅₀, standard error values and linear regression analyses were obtained by using GraphPad Prism 2.0.
As a reminder, the IC50 is the concentration needed to halve the response being measured. Low readings indicate higher potency, high ones lower potency. On to B3, for which the half-maximal inhibitory concentration (IC50) is 485 nM and the pD2 was 6.31 -log IC50.
Turning to B4, the pD2 is < 3 -log IC50.
Consider B5, for which the 50% inhibitory concentration (IC50) amounted to 293 nM and the pD2 was 6.53 -log IC50.
Turning to B1, the IC50 is 177 nM and the pD2 was 6.75 -log IC50.

The next assay deals with T3, human C5L2. Kind of assay: competition with 50 pM 125I-C5a on C5L2-transfected RBL cells, 4 C. The method, then:
as §1
As for B3, the IC50 was determined as 3790 nM and the pD2 is 5.42 -log IC50.
For B4 the same measures were 36.9 nM and 7.43 -log IC50.
For the molecule B5, the IC50 came to 8.17 nM and the pD2 was 8.09 -log IC50.
With B1, the IC50 amounted to 170000 nM and the pD2 is 4.72 -log IC50.

The target in another assay is T2, human CD88 (C5a receptor). Kind of assay: competition with 50 pM 125I-C5a on CD88-transfected RBL cells, 4 C. As to the method: as §1
Regarding B3, the IC50 is 4440 nM and the pD2 was 5.35 -log IC50.
As for B4, the IC50 turned out to be 411 nM and the pD2 was 6.39 -log IC50.
In the same order, the values of B6 are 230000 nM and 4.64 -log IC50.
For B5 the same measures were 20.5 nM and 7.69 -log IC50.

A further assay concerns the target T1, human C3a receptor (C3aR). Kind of assay: flow cytometry, FLUOS-ASP on HEK 293 cells transiently transfected with C3aR. The method, then: (§2) HEK 293 cells were transfected with C3aR (A) or C5L2 (B) and three days later cells were incubated for 30 minutes with the indicated concentrations of FLUOS-labelled C3a or ASP, respectively. Binding/uptake was assessed by FACS, and the percentage of cells above a fluorescence intensity of 8 was determined. The fluorescence histograms at the highest and lowest ligand concentrations are shown in the insets;
(§3) Recombinant C3a des-Arg⁷⁷ can clearly compete with ¹²⁵I-C3a for binding to C5L2, so we then directly measured the affinity of C3a des-Arg⁷⁷ for C5L2, using protein purified from human plasma as ASP. ASP and purified human C3a were labelled with FLUOS. Increasing concentrations of ASP were incubated with HEK 293 cells transiently transfected with C5L2 and binding and uptake assessed by flow cytometry (FIG. 2A). FLUOS-ASP clearly binds to C5L2, with half maximal fluorescence intensity at approximately 3 nM, whereas mock-tansfected cells show no binding of ASP even at a high concentration of 10 nM. For comparison purposes, the binding of FLUOS-C3a and FLUOS-ASP to HEK 293 cells transiently transfected with C3aR is shown (FIG. 2B). […] Thus, C5L2 has binding characteristics that overlap with both CD88 and C3aR but also the unique ability to bind ASP/C3a des-Arg⁷⁷.
Turning to B7, the binding result is listed as “no binding”.

The target of the next assay is T1, human C3a receptor (C3aR). Kind of assay: radioligand competition on C3aR-transfected RBL cells (radioligand not given).
Take B3: the IC50 turned out to be 250 nM and the pD2 is 6.6 -log IC50.
In the same order, the values of B4 are 9670 nM and 5.02 -log IC50.
On to B6, for which the IC50 worked out at 155 nM and the pD2 was 6.81 -log IC50.
In the same order, the values of B5 are 2900 nM and 5.54 -log IC50.
As for B2, the pD2 was < 4 -log IC50.
Consider B1, for which the IC50 came to 100000 nM and the pD2 is 4.99 -log IC50.

In the next assay the target is T1, human C3a receptor (C3aR). The assay is described as follows: flow cytometry, binding/uptake of FLUOS-C3a on HEK 293 cells transiently transfected with C3aR, 30 min at 37 C. As to the method:
as §2, §3
For orientation: Flow cytometry measures light scatter and fluorescence of single cells or particles in a stream.
What is called EC50 is the concentration giving half of the maximal effect. Take B8: the EC50 is 2.5 nM.

The values are drawn from patent publication US20060121462A1 (published 2006).
